Values quoted from earlier work, collected in article PMC7854602.
pKd: −log10 of the molar value.

Tests used:
Cdc42 (activated) = Cdc42 (activated) (UniProt P60953)
Cdc42 (inactive) = Cdc42 (inactive) (UniProt P60953)
RhoA (inactive) = RhoA (inactive) (UniProt P61586)
RhoA (activated) = RhoA (activated) (UniProt P61586)

pKd (Cdc42 (activated))	pKd (Cdc42 (inactive))	pKd (RhoA (inactive))	pKd (RhoA (activated))	Substance
5.74	3.83	–	–	Pak3 CBD 60-113 (from UniProt O75914)
–	–	4.33	5.41	Rhotekin RBD 8-81 (from UniProt Q8C6B2)
